5 molecules from patent US20210139548A1 (published 2021) can be followed below.

For orientation: Ki means a dissociation constant, usually derived from enzyme kinetics or from competition with a known ligand. High values mean a looser hold on the target, low ones a stronger hold on the target.

The labels stand for the following.
B1: Compound 90 (peptide)
peptide: Isovaleryl-APEK([AEEA-AEEA-γGlu-C18 diacid])PEEDASPEELQRYEVSLRHYYNWLTRQRY-NH2
SMILES: CC(C)CC(=O)N[C@@H](C)C(=O)N1CCC[C@H]1C(=O)N[C@@H](CCC(=O)O)C(=O)N[C@@H](CCCCNC(=O)COCCOCCNC(=O)COCCOCCNC(=O)CC[C@H](NC(=O)CCCCCCCCCCCCCCCCC(=O)O)C(=O)O)C(=O)N1CCC[C@H]1C(=O)N[C@@H](CCC(=O)O)C(=O)N[C@@H](CCC(=O)O)C(=O)N[C@@H](CC(=O)O)C(=O)N[C@@H](C)C(=O)N[C@@H](CO)C(=O)N1CCC[C@H]1C(=O)N[C@@H](CCC(=O)O)C(=O)N[C@@H](CCC(=O)O)C(=O)N[C@@H](CC(C)C)C(=O)N[C@@H](CCC(N)=O)C(=O)N[C@@H](CCCNC(=N)N)C(=O)N[C@@H](Cc1ccc(O)cc1)C(=O)N[C@@H](CCC(=O)O)C(=O)N[C@H](C(=O)N[C@@H](CO)C(=O)N[C@@H](CC(C)C)C(=O)N[C@@H](CCCNC(=N)N)C(=O)N[C@@H](Cc1c[nH]cn1)C(=O)N[C@@H](Cc1ccc(O)cc1)C(=O)N[C@@H](Cc1ccc(O)cc1)C(=O)N[C@@H](CC(N)=O)C(=O)N[C@@H](Cc1c[nH]c2ccccc12)C(=O)N[C@@H](CC(C)C)C(=O)N[C@H](C(=O)N[C@@H](CCCNC(=N)N)C(=O)N[C@@H](CCC(N)=O)C(=O)N[C@@H](CCCNC(=N)N)C(=O)N[C@@H](Cc1ccc(O)cc1)C(N)=O)[C@@H](C)O)C(C)C
B2: Compound 92 (peptide)
peptide: Isovaleryl-APEK([AEEA-AEEA-γGlu-C18 diacid])PEEDTSPEELQRYYVSLRHYYNWLTRQRY-NH2
SMILES: CC(C)CC(=O)N[C@@H](C)C(=O)N1CCC[C@H]1C(=O)N[C@@H](CCC(=O)O)C(=O)N[C@@H](CCCCNC(=O)COCCOCCNC(=O)COCCOCCNC(=O)CC[C@H](NC(=O)CCCCCCCCCCCCCCCCC(=O)O)C(=O)O)C(=O)N1CCC[C@H]1C(=O)N[C@@H](CCC(=O)O)C(=O)N[C@@H](CCC(=O)O)C(=O)N[C@@H](CC(=O)O)C(=O)N[C@H](C(=O)N[C@@H](CO)C(=O)N1CCC[C@H]1C(=O)N[C@@H](CCC(=O)O)C(=O)N[C@@H](CCC(=O)O)C(=O)N[C@@H](CC(C)C)C(=O)N[C@@H](CCC(N)=O)C(=O)N[C@@H](CCCNC(=N)N)C(=O)N[C@@H](Cc1ccc(O)cc1)C(=O)N[C@@H](Cc1ccc(O)cc1)C(=O)N[C@H](C(=O)N[C@@H](CO)C(=O)N[C@@H](CC(C)C)C(=O)N[C@@H](CCCNC(=N)N)C(=O)N[C@@H](Cc1c[nH]cn1)C(=O)N[C@@H](Cc1ccc(O)cc1)C(=O)N[C@@H](Cc1ccc(O)cc1)C(=O)N[C@@H](CC(N)=O)C(=O)N[C@@H](Cc1c[nH]c2ccccc12)C(=O)N[C@@H](CC(C)C)C(=O)N[C@H](C(=O)N[C@@H](CCCNC(=N)N)C(=O)N[C@@H](CCC(N)=O)C(=O)N[C@@H](CCCNC(=N)N)C(=O)N[C@@H](Cc1ccc(O)cc1)C(N)=O)[C@@H](C)O)C(C)C)[C@@H](C)O
B3: Compound 95 (peptide)
peptide: Isovaleryl-APEK([AEEA-AEEA-γGlu-C18 diacid])PEEDASPAEIQRYYVSLRHYYNWLTRQRY-NH2
SMILES: CC[C@H](C)[C@H](NC(=O)[C@H](CCC(=O)O)NC(=O)[C@H](C)NC(=O)[C@@H]1CCCN1C(=O)[C@H](CO)NC(=O)[C@H](C)NC(=O)[C@H](CC(=O)O)NC(=O)[C@H](CCC(=O)O)NC(=O)[C@H](CCC(=O)O)NC(=O)[C@@H]1CCCN1C(=O)[C@H](CCCCNC(=O)COCCOCCNC(=O)COCCOCCNC(=O)CC[C@H](NC(=O)CCCCCCCCCCCCCCCCC(=O)O)C(=O)O)NC(=O)[C@H](CCC(=O)O)NC(=O)[C@@H]1CCCN1C(=O)[C@H](C)NC(=O)CC(C)C)C(=O)N[C@@H](CCC(N)=O)C(=O)N[C@@H](CCCNC(=N)N)C(=O)N[C@@H](Cc1ccc(O)cc1)C(=O)N[C@@H](Cc1ccc(O)cc1)C(=O)N[C@H](C(=O)N[C@@H](CO)C(=O)N[C@@H](CC(C)C)C(=O)N[C@@H](CCCNC(=N)N)C(=O)N[C@@H](Cc1c[nH]cn1)C(=O)N[C@@H](Cc1ccc(O)cc1)C(=O)N[C@@H](Cc1ccc(O)cc1)C(=O)N[C@@H](CC(N)=O)C(=O)N[C@@H](Cc1c[nH]c2ccccc12)C(=O)N[C@@H](CC(C)C)C(=O)N[C@H](C(=O)N[C@@H](CCCNC(=N)N)C(=O)N[C@@H](CCC(N)=O)C(=O)N[C@@H](CCCNC(=N)N)C(=O)N[C@@H](Cc1ccc(O)cc1)C(N)=O)[C@@H](C)O)C(C)C
B4: Compound 94 (peptide)
peptide: Isovaleryl-APEK([AEEA-AEEA-γGlu-C18 diacid])PEEDASPEETQRYYVELRHYYNWLTRQRY-NH2
SMILES: CC(C)CC(=O)N[C@@H](C)C(=O)N1CCC[C@H]1C(=O)N[C@@H](CCC(=O)O)C(=O)N[C@@H](CCCCNC(=O)COCCOCCNC(=O)COCCOCCNC(=O)CC[C@H](NC(=O)CCCCCCCCCCCCCCCCC(=O)O)C(=O)O)C(=O)N1CCC[C@H]1C(=O)N[C@@H](CCC(=O)O)C(=O)N[C@@H](CCC(=O)O)C(=O)N[C@@H](CC(=O)O)C(=O)N[C@@H](C)C(=O)N[C@@H](CO)C(=O)N1CCC[C@H]1C(=O)N[C@@H](CCC(=O)O)C(=O)N[C@@H](CCC(=O)O)C(=O)N[C@H](C(=O)N[C@@H](CCC(N)=O)C(=O)N[C@@H](CCCNC(=N)N)C(=O)N[C@@H](Cc1ccc(O)cc1)C(=O)N[C@@H](Cc1ccc(O)cc1)C(=O)N[C@H](C(=O)N[C@@H](CCC(=O)O)C(=O)N[C@@H](CC(C)C)C(=O)N[C@@H](CCCNC(=N)N)C(=O)N[C@@H](Cc1c[nH]cn1)C(=O)N[C@@H](Cc1ccc(O)cc1)C(=O)N[C@@H](Cc1ccc(O)cc1)C(=O)N[C@@H](CC(N)=O)C(=O)N[C@@H](Cc1c[nH]c2ccccc12)C(=O)N[C@@H](CC(C)C)C(=O)N[C@H](C(=O)N[C@@H](CCCNC(=N)N)C(=O)N[C@@H](CCC(N)=O)C(=O)N[C@@H](CCCNC(=N)N)C(=O)N[C@@H](Cc1ccc(O)cc1)C(N)=O)[C@@H](C)O)C(C)C)[C@@H](C)O
B5: Compound 100 (peptide)
peptide: Isovaleryl-APAK([AEEA-AEEA-γGlu-C18 diacid])PPEDASPEELQRYYVSLRHYYNWLTRQRY-NH2
SMILES: CC(C)CC(=O)N[C@@H](C)C(=O)N1CCC[C@H]1C(=O)N[C@@H](C)C(=O)N[C@@H](CCCCNC(=O)COCCOCCNC(=O)COCCOCCNC(=O)CC[C@H](NC(=O)CCCCCCCCCCCCCCCCC(=O)O)C(=O)O)C(=O)N1CCC[C@H]1C(=O)N1CCC[C@H]1C(=O)N[C@@H](CCC(=O)O)C(=O)N[C@@H](CC(=O)O)C(=O)N[C@@H](C)C(=O)N[C@@H](CO)C(=O)N1CCC[C@H]1C(=O)N[C@@H](CCC(=O)O)C(=O)N[C@@H](CCC(=O)O)C(=O)N[C@@H](CC(C)C)C(=O)N[C@@H](CCC(N)=O)C(=O)N[C@@H](CCCNC(=N)N)C(=O)N[C@@H](Cc1ccc(O)cc1)C(=O)N[C@@H](Cc1ccc(O)cc1)C(=O)N[C@H](C(=O)N[C@@H](CO)C(=O)N[C@@H](CC(C)C)C(=O)N[C@@H](CCCNC(=N)N)C(=O)N[C@@H](Cc1c[nH]cn1)C(=O)N[C@@H](Cc1ccc(O)cc1)C(=O)N[C@@H](Cc1ccc(O)cc1)C(=O)N[C@@H](CC(N)=O)C(=O)N[C@@H](Cc1c[nH]c2ccccc12)C(=O)N[C@@H](CC(C)C)C(=O)N[C@H](C(=O)N[C@@H](CCCNC(=N)N)C(=O)N[C@@H](CCC(N)=O)C(=O)N[C@@H](CCCNC(=N)N)C(=O)N[C@@H](Cc1ccc(O)cc1)C(N)=O)[C@@H](C)O)C(C)C

*1 amine or outer side, *2 acyl side, *3 side chain or, on linkers, in order; H or OH if unused. Side-chain parts run from the residue outwards. The star is where a group is joined. C18 diacid = O=C(O)CCCCCCCCCCCCCCCCC(=O)*; γGlu = O=C(O)[C@H](CCC(=O)[*:2])N[*:1]; Isovaleryl = CC(C)CC(=O)*; AEEA = NCCOCCOCC(=O)O

This assay addresses T1, human neuropeptide Y2 receptor (human, UniProt P49146 1-381).
T1 construct: whole, on cells; also called hNPY2 receptor; hNPY2-R
T1 sequence (looked up): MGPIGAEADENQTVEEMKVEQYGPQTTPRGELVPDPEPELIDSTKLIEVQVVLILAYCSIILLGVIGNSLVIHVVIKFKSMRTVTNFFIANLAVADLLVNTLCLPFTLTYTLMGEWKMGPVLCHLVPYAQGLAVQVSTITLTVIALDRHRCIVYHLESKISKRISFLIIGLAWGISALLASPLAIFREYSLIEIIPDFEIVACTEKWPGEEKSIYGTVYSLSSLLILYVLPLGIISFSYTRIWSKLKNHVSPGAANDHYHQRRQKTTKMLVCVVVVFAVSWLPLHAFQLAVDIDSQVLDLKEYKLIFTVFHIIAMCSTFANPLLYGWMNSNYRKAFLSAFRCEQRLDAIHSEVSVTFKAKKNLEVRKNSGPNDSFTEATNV
Put plainly: radioligand competition (125I-PYY(1-36)), hNPY2R membranes. A digest of the protocol: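 Commercial human Y2 receptor membranes (0.5 μg protein/well) were incubated with peptide for 2 h at room temperature in 50 mM HEPES, 5 mM MgCl₂, 1 mM CaCl₂, pH 7.4, with 0.2% ovalbumin. Bound radioligand was separated on PEI-soaked GF/C filters and counted by scintillation, and IC₅₀ came from nonlinear sigmoidal regression.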
(Displacement assays read how much labelled ligand stays bound in the presence of the test substance.)
For B1, the Ki is 1.6 nM.

As for B2, the inhibitory constant (Ki) is 1.57 nM. The molecule B3 registered a Ki of 0.66 nM. As for B4, the figure is 2.07 nM; as for B5, 0.44 nM.
